The text below walks through data of patent US20020031818A1, “Modification of Mdm2 activity” (priority 2000, published 2002).

One experiment concerns the target T1, Ubc9 binding to Mdm2 (Homo sapiens, UniProt Q00987).
T1 construct: made in house; host or cells: GST-Mdm2: bacteria; Ubc9: in vitro translation
Description: In vitro binding of Ubc9 to GST-Mdm2. Conditions: in vitro translated p19ARF and Ubc9, GST-Mdm2 1 μg. The protocol:
FIGS. 17A and 17B. A. p19^ARF decreases Ubc9 binding to Mdm2. Bacterially expressed and purified GST-Mdm2 (1 μg) was incubated with ^35S-labeled in vitro translated p19^ARF and Ubc9 at the indicated ratios. After 30 min of incubation GSH beads bound-GST-Mdm2 were washed and separated on a 12% SDS-PAGE. Gel was dried and subjected to autoradiograph, depicting relative amounts of Ubc9 and p19^ARF bound to Mdm2. B. Bacterially expressed and purified GST-Mdm2 (1 μg) was phosphorylated by purified form of active p38 kinase as indicated. Phosphorylated or un-phosphorylated Mdm2 was incubated for 30 min with in vitro translated UbcH5b and Ubc9 (25 μl). Beads were washed and separated on a 12% SDS-PAGE. Gel was dried and exposed to X-ray film. Position of Ubc9 and UbcH5b is shown.
A prerequisite for Mdm2 sumoylation is the association of Ubc9, the SUMO conjugating enzyme, with Mdm2, which enables subsequent conjugation of SUMO-1 to Mdm2. Inhibition of Ubc9's association with Mdm2 attenuates Mdm2 sumoylation. Given the effect of p19^ARF on Mdm2 sumoylation, we proceeded to determine whether p19^ARF may alter Ubc9 binding to Mdm2. To this end we performed an in vitro binding assay, using in vitro translated p19^ARF and Ubc-9, as indicated. […] We next assessed possible changes in Ubc9 binding to Mdm2 upon its phosphorylation by p38.

Experiment [1] deals with Mdm2. Kind of experiment: Pulse-chase half-life of Mdm2 wt or S218A in normal human fibroblasts. Format: cell-based. The procedure: (§1) FIG. 16A-16F. A. Activation of p38 increases Mdm2 ubiquitination in vivo. EJ cells were transfected with indicated plasmids. 36 h after transfection cells were harvested and Mdm2 was immunoprecipitated (2A10 antibodies). […] Middle panels show expression levels of Mdm2 and p19^ARF. Lower panels depict phospho-and total p38 levels. B. Mutation at Ser218 of Mdm2 abolishes p38 induced Mdm2 ubiquitination. Normal human fibroblasts were transfected with indicated plasmids. 36 h after transfection cells were harvested and lysed. Mdm2 was immunoprecipitated and proteins were separated on a 8% SDS-PAGE. […] C. Mutation at Ser218 of Mdm2 abrogates p19^ARF-induced Mdm2 degradation. […] Upper panels depict Mdm2-Sumo conjugates (detected via Sumo-1 anitbodies), as well as the 75 kD and 90 kD forms of Mdm2 (detected via Mdm2 antibodies). […] To monitor possible changes in amount of p19 bound to Mdm2 association was monitored using normalized Mdm2 levels at the indicated time-points after UV-treatment.
(§2) Normal human fibroblasts (NHF) were transfected with wt or S218A forms of Mdm2 expression vectors (4 μg). ^35S-methionine (1 mCi) was added to the cell cultures 24 h after transfection for 5 h (pulse) followed by chase (2 mM cold methionine) for the indicated time points. […] Immunoprecipated Mdm2 was washed, separated on 10% SDS-PAGE, and analyzed by autoradiography.

Experiment [2] has as its target T2, Mdm2 (Homo sapiens, UniProt Q00987). Kind of experiment: Co-immunoprecipitation of p19ARF forms with Mdm2. Set-up: expressed in transfected cells; host or cells: 293T. The settings on record: forced expression of Mdm2 and wt or Δ62 p19ARF. Type of experiment: cell-based.
The target in experiment [3] is T2, Mdm2. Kind of experiment: Pulse-chase half-life of Mdm2 wt or S218A in normal human fibroblasts. Type of experiment: cell-based. Set-up: Normal human fibroblasts (TIG) were transfected with HA-Ub and wt or mutant Ubc9 plasmids as indicated; endogenous in cells; host or cells: normal human fibroblasts (TIG). The procedure: as §1, §2

T2 sequence (Q00987 whole entry): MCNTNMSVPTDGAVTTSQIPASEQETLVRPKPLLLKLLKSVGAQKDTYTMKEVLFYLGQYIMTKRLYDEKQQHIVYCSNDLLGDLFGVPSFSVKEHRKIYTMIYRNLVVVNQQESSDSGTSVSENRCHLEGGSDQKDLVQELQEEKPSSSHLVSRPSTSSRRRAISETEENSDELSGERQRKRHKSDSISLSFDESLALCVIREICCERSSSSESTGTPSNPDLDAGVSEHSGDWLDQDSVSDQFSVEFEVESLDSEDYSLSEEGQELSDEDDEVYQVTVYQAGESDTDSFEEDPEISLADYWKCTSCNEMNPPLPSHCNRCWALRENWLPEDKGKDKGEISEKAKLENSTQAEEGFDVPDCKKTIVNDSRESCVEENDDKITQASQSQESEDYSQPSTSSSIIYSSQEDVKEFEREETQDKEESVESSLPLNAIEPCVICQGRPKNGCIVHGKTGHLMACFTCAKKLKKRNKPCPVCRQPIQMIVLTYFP
T1 sequence (Q00987 whole entry): as above

B1: p19^ARF: Mdm2-regulating protein; in vitro translated, bacculovirus-expressed or transfected (protein)
chain: MGRRFLVTVRIQRAGRPLQERVFLVKFVRSRRPRTASCALAFVNMLLRLERILRRGPHRNPGPGDDDGQRSRSSSSAQLRCRFELRGPHYLLPPGARRSAGRLPGHAGGAARVRGSAGCARCLGSPAARLGPRAGTSRHRAIFAFRWVLFVFRWVVFVYRWERRPDRRA
With B1, the “Ubc9 binding to Mdm2 in presence of increasing amounts of p19ARF” value in the experiment with Ubc9 binding to Mdm2 was “dose dependent decrease in Ubc9 binding to Mdm2”. Further, the “effect on half-life of Mdm2 S218A mutant” value in the experiment on Mdm2 [1] is reported as “minimal effects”. Besides, the “complex of p19ARF form with Mdm2” value with Mdm2 [2] is “only the wt form in complex with Mdm2”. Further, the “effect on half-life of wt Mdm2” value with Mdm2 [3] is reported as “efficiently shorten Mdm2 half-life”.
